Assay results published in the supplement of paper PMC10567573.

B1: POLD4 (parent)
chain: ITDSYPVVKRREGPAGHSKGELAP

Variants of: B1
Test: protein stability index of a GFP-peptide fusion (GPS, HEK-293T) (PSI 1-6); higher = more stable
Settings: c terminus: a fixed tail appended
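Further: lentivirally expressed fusions sorted by FACS into six bins by GFP to DsRed ratio, PSI derived from sequencing read proportions per bin multiplied by bin number.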

Variant | protein stability index
ITDSYPVVWRREGPAGHSKGELAP | 4.14
ITDSYPVVYRREGPAGHSKGELAP | 4.15
ITDSYPVVKAREGPAGHSKGELAP | 4.56
ITDSYPVVKCREGPAGHSKGELAP | 3.79
ITDSYPVVKDREGPAGHSKGELAP | 4.98
ITDSYPVVKEREGPAGHSKGELAP | 4.8
ITDSYPVVKFREGPAGHSKGELAP | 3.57
ITDSYPVVKGREGPAGHSKGELAP | 4.21
ITDSYPVVKHREGPAGHSKGELAP | 4.33
ITDSYPVVKIREGPAGHSKGELAP | 3.38
ITDSYPVVKKREGPAGHSKGELAP | 2.39
ITDSYPVVKLREGPAGHSKGELAP | 3.64
ITDSYPVVKMREGPAGHSKGELAP | 3.16
ITDSYPVVKNREGPAGHSKGELAP | 3.92
ITDSYPVVKPREGPAGHSKGELAP | 4.68
ITDSYPVVKQREGPAGHSKGELAP | 3.8
ITDSYPVVKSREGPAGHSKGELAP | 3.89
ITDSYPVVKTREGPAGHSKGELAP | 3.6
ITDSYPVVKVREGPAGHSKGELAP | 3.94
ITDSYPVVKWREGPAGHSKGELAP | 3.07
ITDSYPVVKYREGPAGHSKGELAP | 4.05
ITDSYPVVKRAEGPAGHSKGELAP | 3.23
ITDSYPVVKRCEGPAGHSKGELAP | 3.68
ITDSYPVVKRDEGPAGHSKGELAP | 4.79

Variant | protein stability index
ITDSYPVVKREEGPAGHSKGELAP | 5.14
ITDSYPVVKRFEGPAGHSKGELAP | 2.43
ITDSYPVVKRGEGPAGHSKGELAP | 3.79
ITDSYPVVKRHEGPAGHSKGELAP | 3.28
ITDSYPVVKRIEGPAGHSKGELAP | 3.76
ITDSYPVVKRKEGPAGHSKGELAP | 3.54
ITDSYPVVKRLEGPAGHSKGELAP | 2.98
ITDSYPVVKRMEGPAGHSKGELAP | 2.87
ITDSYPVVKRNEGPAGHSKGELAP | 3.28
ITDSYPVVKRPEGPAGHSKGELAP | 3.28
ITDSYPVVKRQEGPAGHSKGELAP | 4.37
ITDSYPVVKRSEGPAGHSKGELAP | 3.23
ITDSYPVVKRTEGPAGHSKGELAP | 3.33
ITDSYPVVKRVEGPAGHSKGELAP | 2.69
ITDSYPVVKRWEGPAGHSKGELAP | 3.46
ITDSYPVVKRYEGPAGHSKGELAP | 3.36
ITDSYPVVKRRAGPAGHSKGELAP | 2.52
ITDSYPVVKRRCGPAGHSKGELAP | 2.1
ITDSYPVVKRRDGPAGHSKGELAP | 3.08
ITDSYPVVKRRFGPAGHSKGELAP | 1.86
ITDSYPVVKRRGGPAGHSKGELAP | 3.01
ITDSYPVVKRRHGPAGHSKGELAP | 2.72
ITDSYPVVKRRIGPAGHSKGELAP | 3.53
ITDSYPVVKRRKGPAGHSKGELAP | 3.11

Variant | protein stability index
ITDSYPVVKRRLGPAGHSKGELAP | 2.87
ITDSYPVVKRRMGPAGHSKGELAP | 2.87
ITDSYPVVKRRNGPAGHSKGELAP | 2.85
ITDSYPVVKRRPGPAGHSKGELAP | 3.26
ITDSYPVVKRRQGPAGHSKGELAP | 4.16
ITDSYPVVKRRRGPAGHSKGELAP | 2.65
ITDSYPVVKRRSGPAGHSKGELAP | 2.69
ITDSYPVVKRRTGPAGHSKGELAP | 3.41
ITDSYPVVKRRVGPAGHSKGELAP | 2.72
ITDSYPVVKRRWGPAGHSKGELAP | 2.88
ITDSYPVVKRRYGPAGHSKGELAP | 2.48
ITDSYPVVKRREAPAGHSKGELAP | 2.92
ITDSYPVVKRRECPAGHSKGELAP | 3.87
ITDSYPVVKRREDPAGHSKGELAP | 3.94
ITDSYPVVKRREEPAGHSKGELAP | 3.86
ITDSYPVVKRREFPAGHSKGELAP | 2.45
ITDSYPVVKRREHPAGHSKGELAP | 3.24
ITDSYPVVKRREIPAGHSKGELAP | 2.7
ITDSYPVVKRRELPAGHSKGELAP | 2.75
ITDSYPVVKRRENPAGHSKGELAP | 2.78
ITDSYPVVKRREPPAGHSKGELAP | 4.43
ITDSYPVVKRREQPAGHSKGELAP | 3.32
ITDSYPVVKRRERPAGHSKGELAP | 3.7
ITDSYPVVKRRESPAGHSKGELAP | 3.22

Variant | protein stability index
ITDSYPVVKRRETPAGHSKGELAP | 3.19
ITDSYPVVKRREVPAGHSKGELAP | 2.62
ITDSYPVVKRREWPAGHSKGELAP | 2.5
ITDSYPVVKRREYPAGHSKGELAP | 3.11
ITDSYPVVKRREGAAGHSKGELAP | 3.82
ITDSYPVVKRREGCAGHSKGELAP | 3.14
ITDSYPVVKRREGDAGHSKGELAP | 2.94
ITDSYPVVKRREGEAGHSKGELAP | 4.1
ITDSYPVVKRREGFAGHSKGELAP | 3.28
ITDSYPVVKRREGGAGHSKGELAP | 2.98
ITDSYPVVKRREGHAGHSKGELAP | 3.84
ITDSYPVVKRREGIAGHSKGELAP | 3.1
ITDSYPVVKRREGKAGHSKGELAP | 2.97
ITDSYPVVKRREGLAGHSKGELAP | 3.24
ITDSYPVVKRREGMAGHSKGELAP | 3.06
ITDSYPVVKRREGNAGHSKGELAP | 3.55
ITDSYPVVKRREGQAGHSKGELAP | 3.89
ITDSYPVVKRREGRAGHSKGELAP | 2.46
ITDSYPVVKRREGSAGHSKGELAP | 2.43
ITDSYPVVKRREGTAGHSKGELAP | 3.57
ITDSYPVVKRREGVAGHSKGELAP | 1.93
ITDSYPVVKRREGWAGHSKGELAP | 2.84
